Columns and labels:
[1] = target: T1, human C16orf54 ECD fragment aa9-24 (human); assay: peptide ELISA, 2 ug/ml peptide coated, 10 ug/ml antibody
T1 peptide: SGRVEGPPAWEAAPWP
Method: (§1) Anti-C16orf54 antibodies which bind to human C16orf54, including antibodies that are crossreactive with cyno C16orf54, were tested for their binding to various peptides derived from C16orf54 in a peptide ELISA. A 384-well high binding black microplate (Greiner) was incubated with 2 μg/ml of protein (human, cyno, or mouse extracellular domain peptides) for 16 hours, incubated for 1 hr with a blocking buffer (PBS with 5% Fetal Bovine Serum), washed four times with TBS with Tween, incubated for 1 hour with 10 μg/ml of anti-C16orf54 antibody, washed four times with TBS with Tween, incubated for 1 hour with 10 μg/ml of Peroxidase-AffiniPure Goat Anti-Mouse IgG, Fcγ Fragment Specific (Jackson ImmunoResearch), washed four times with TBS with Tween, and peroxidase was detected with a luminometer (Molecular Devices) upon addition of SuperSignal® ELISA Pico Chemiluminescent Substrate (Thermo Scientific). The luminescence signal was determined.

[2] = target: T2, human C16orf54 ECD fragment aa1-15 (human); assay: as above
T2 peptide: MPLTPEPPSGRVEGP
Method: as §1

[3] = target: T3, human C16orf54 (human, UniProt Q6UWD8 1-224); assay: flow cytometry titration, KG1 cells (endogenous human C16orf54)
T3 construct: also called huC16orf54; hC16orf54
T3 sequence: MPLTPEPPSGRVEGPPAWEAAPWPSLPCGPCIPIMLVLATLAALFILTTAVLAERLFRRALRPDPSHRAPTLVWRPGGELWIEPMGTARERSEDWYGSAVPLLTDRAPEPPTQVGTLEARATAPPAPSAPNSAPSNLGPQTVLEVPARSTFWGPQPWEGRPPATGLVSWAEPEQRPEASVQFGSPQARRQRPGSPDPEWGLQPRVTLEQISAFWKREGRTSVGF

[4] = target: T4, Human C16-ECD peptide (aa1-31) (human); assay: column head 'Full kinetics (nM)' in the table of the C16orf54 peptide binding assays; method and antigen not described; 3 runs
T4 construct: Coated on plates in the peptide ELISA; also called human extracellular domain peptide
T4 peptide: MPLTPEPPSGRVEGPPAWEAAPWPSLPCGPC

[5] = target: T5, cynomolgus monkey C16orf54 (cynomolgus monkey (Macaca fascicularis), UniProt Q6UWD8 1-224 (human entry)); assay: flow cytometry titration, F279-cyno-C16orf54 cells
T5 construct: also called cyno C16orf54; cyno-C16orf54
T5 chain: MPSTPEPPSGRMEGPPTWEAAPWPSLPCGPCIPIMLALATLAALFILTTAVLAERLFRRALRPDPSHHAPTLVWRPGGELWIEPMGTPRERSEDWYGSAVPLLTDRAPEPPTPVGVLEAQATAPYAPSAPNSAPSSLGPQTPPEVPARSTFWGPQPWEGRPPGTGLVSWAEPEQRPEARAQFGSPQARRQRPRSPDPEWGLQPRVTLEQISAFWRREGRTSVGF
Method: Anti-C16orf54 antibodies which bound to human C16orf54 were tested for their binding to cells expressing human C16orf54 and cells expressing cyno C16orf54. […] Median fluorescence intensities for each primary antibody concentration were used to derive a flow EC50/Kd using the one site-specific binding with Hill slope model in Prism (GraphPad Prism® Software). Results are shown as flow EC50 in Table 35.

[6] = target: T3, human C16orf54; assay: flow cytometry, 10 ug/ml antibody, D42M1-huC16orf54 cells
Method: (§2) Anti-C16orf54 antibodies which bound to human C16orf54 were tested for their reactivity with human C16orf54 and their crossreactivity with C16orf54 from cynomolgous monkeys (cyno C16orf54) using flow cytometry. Sarcoma cells transfected with and expressing human C16orf54 or cyno C16orf54 were washed with PBS with 0.1% BSA, incubated with FcX receptor blocking solution (BioLegend) for 15 minutes, incubated with 10 μg/ml of anti-C16orf54 antibody for 1 hour at 4° C., washed twice with PBS with 0.1% BSA, incubated with 20 μg/ml of R-Phycoerythrin-AffiniPure F(ab′)2 Fragment Goat Anti-Mouse IgG, Fcγ Fragment Specific (Jackson ImmunoResearch) for 30 minutes at 4° C., washed twice with PBS with 0.1% BSA, incubated with the viability dye TO-PRO-3 iodide (Life Technologies), and immediately analyzed on a MACSQuant Analyzer instrument (Miltenyi). For each cell line and anti-C16orf54 antibody, a fold change was derived by dividing the median fluorescence intensity for Phycoerythrin in the live cell population for the anti-C16orf54 antibody by the median fluorescence intensity for Phycoerythrin in the live cell population for the IgG isotype control antibody. A number of anti-C16orf54 antibodies (see, e.g., R29-8-57B, R29-8-136C, R29-7-1C, R29-67-7A, R29-67-4A, and R29-7-2A) bind human C16orf54 and also bind (e.g., are crossreactive with) cyno C16orf54.

[7] = target: T5, cynomolgus monkey C16orf54; assay: flow cytometry, 10 ug/ml antibody, F279-cyno-C16orf54 cells
Method: as §2

[8] = target: T4, Human C16-ECD peptide (aa1-31); assay: column head 'Full kinetics (nM)' in the table of the C16orf54 peptide binding assays; method and antigen not described; 1 run
[9] = target: T6, N-terminal 32 amino acids of huC16orf54 coupled to biotin (human, biotin at the C-terminus); assay: biolayer interferometry (OctetQK384), hybridoma supernatant on streptavidin sensors coated with the biotinylated peptide
T6 construct: also called 32 amino acid N-terminal extracellular domain
T6 peptide: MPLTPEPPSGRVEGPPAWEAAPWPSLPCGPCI
Method: Eight anti-huC16orf54 monoclonal antibodies were further screened for binding and subsequent off-rate analysis using the OctetQK384® sytem (ForteBio). Hybridoma supernatants were screened for association to and dissocation from streptavidin sensors coated with the N-terminal 32 amino acids of huC16orf54 coupled to biotin, and the calculated offrates (kdis) are shown in Table 31. Cloned hybridomas with […] off-rates were carried forward for antibody purification.

[10] = target: T1, human C16orf54 ECD fragment aa9-24; assay: peptide ELISA, 2 ug/ml peptide coated, 10 ug/ml antibody; column 'Human ECD & ECD fragments bound by antibody'
Method: as §1

[11] = target: T2, human C16orf54 ECD fragment aa1-15; assay: as above
Method: as §1

[12] = target: T6, N-terminal 32 amino acids of huC16orf54 …; assay: biolayer interferometry (OctetQK384), purified antibody on streptavidin sensors coated with the biotinylated peptide
Method: Affinity measurements of purified anti-huC16orf54 antibodies were carried out on the OctetQK384® sytem (ForteBio). After coating streptavidin sensors with the N-terminal 32 amino acids of huC16orf54 coupled to biotin at the C-terminus, association and dissociation of purified anti-huC16orf54 antibodies was monitored. KD values were derived using ForteBio's software.

[13] = target: T4, Human C16-ECD peptide (aa1-31); assay: column head 'Full kinetics (nM)' in the table of the C16orf54 peptide binding assays; method and antigen not described; 4 runs
[14] = target: T7, cynomolgus monkey C16orf54 (cynomolgus monkey (Macaca fascicularis)); assay: flow cytometry, 10 ug/ml antibody, F279-cyno-C16orf54 cells
T7 sequence: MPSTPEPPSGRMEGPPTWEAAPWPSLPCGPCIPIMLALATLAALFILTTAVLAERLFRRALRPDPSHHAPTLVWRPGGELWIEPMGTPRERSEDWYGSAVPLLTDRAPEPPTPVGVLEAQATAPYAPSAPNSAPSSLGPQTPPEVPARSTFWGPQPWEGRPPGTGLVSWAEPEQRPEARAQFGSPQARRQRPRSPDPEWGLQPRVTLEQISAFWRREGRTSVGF

[15] = target: T8, Cyno C16-ECD peptide (aa1-31) (cynomolgus monkey); assay: peptide ELISA, 2 ug/ml peptide coated, 10 ug/ml antibody; column 'Cyno ECD bound by antibody'
T8 construct: Coated on plates in the peptide ELISA; also called cyno extracellular domain peptide; Cyno ECD
T8 peptide: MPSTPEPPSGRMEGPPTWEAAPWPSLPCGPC
Method: as §1

[16] = target: T4, Human C16-ECD peptide (aa1-31); assay: column head 'Full kinetics (nM)' in the table of the C16orf54 peptide binding assays; method and antigen not described; 2 runs; 2 runs, stdev 0.02

Binder | binding result [1] | binding result [2] | EC50 [3] [nM] | Kd [4] [nM] | EC50 [5] [nM] | Median fold change relative to IgG control [6] [fold] | Median fold change relative to IgG control [7] [fold] | Kd [8] [nM] | koff [9] [s⁻¹] | binding result [10] | binding result [11] | Kd [12] [nM] | koff [12] [s⁻¹] | kon [12] [M⁻¹ s⁻¹] | Kd [13] [nM] | Median fold change relative to IgG control [14] [fold] | binding result [15] | Kd [16] [nM]
R29-8-57B (antibody, V domains shown, Murine monoclonal antibody from a hybridoma) VH: DVQLQESGPGLVKPSQSLSLTCTVTGYSITSDYAWNWIRQFPGNKLEWMGYINYSGSTRYNPSLKSRISITRDTSKNHFFLQLNSVTPEDTATYHCARERYDGVYYGMDYWGQGTSVTVSS VL: DIVMSQSPSSLAVSVGEKVTMSCKSSQSLLYSSNQKNYLAWYQQKPGQSPKLLIYWASTRESGVPDRFTGSGSGTDFTLTISSVKTEDLAVYYCQQYYSYRTFGGGTKLEIK | binds | binds | 0.1 | 0.6 | 2.5 | 204 | 62 |  |  |  |  |  |  |  |  |  |  | 
R29-67-7A (antibody, V domains shown, Murine monoclonal IgG2a from a hybridoma) VH: DVQLQESGPGLVKPSQSLSLTCTVTGYSITSDYAWNWIRQFPGNKLEWMGYINYSGRTRYNPSLNSRISLTRDTSTNQFFLQLNSVTTEDTATYYCARENYDYEFYAMDYWGQGTSVTVSS VL: DIVMSQSPSSLAVSVGEKVTMSCKSSQNLLYSSNQKNYLAWYQQKPGQSPKLLIYWASTRESGVPDRFTGSGSGTDFTLTISSVKAEDLAVYYCQQYYIYRTFGGGTKLEIK | binds | binds | 7.3 |  | 3.7 | 140 | 35.6 | 2.51 | 0.00845 |  |  |  |  |  |  |  |  | 
R29-8-136C (antibody, V domains shown, Murine monoclonal antibody from a hybridoma) VH: DVQLQESGPGLVKPSQSLSLTCTVTGYSITSDYAWNWIRQFPGNKLEWMGYINYSGSSRYNPSLKSRISITRDTSKNHFFLQLNSVTPEDTATYHCARERYDGVYYGMDYWGQGTSVTVSS VL: DIVMSQSPSSLAVSVGEKVTMSCKSSQSLLYSSNQKNYLAWYQQKPGQSPKLLIYWASTRESGVPDRFTGSGSGTDFTLTISSVKTEDLAVYYCQQYYSYRTFGGGTKLEIK | binds | binds | 0.2 | 0.64 | 2.5 | 202 | 61.6 |  |  |  |  |  |  |  |  |  |  | 
R29-7-2A (antibody, V domains shown, Murine monoclonal IgG2b from a hybridoma) VH: EVQLVESGGGLIQPKGSLKLSCVASGFSFNTHAMNWVRQAPGKGLEWVARIRSKSNNYARYYADSVKDRFTISRDDSQSILYLQMNNLKTEDTAMYYCVKQGDGGFAYWGQGTLVTVSA VL: DIVMSQSPSSLAVSVGEKVTMSCKSSQSLLYSSNQKNYLAWYQQRPGQSPKLLIYWASARESGVPDRFTGSGSGTDFTLTISSVKAEDLAVYYCQQYYSYPPTFGAGTKVELK |  |  | 1 |  | 2.7 | 267 | 78.5 |  | 0.00707 | binds | binds | 1.3 | 4.12e-05 | 31900 | 1.01 |  |  | 
R29-8-58C (antibody, V domains shown, Murine monoclonal antibody from a hybridoma) VH: EVKLVESGGGLVKPGGSLKFSCAASGFTFSSYAVSWVRQTPEKRLEWVASITSGGRSYYPDSVKGRFTISRDNARSMLYLHMSSLRSEDTAMYYCTRGWDENDLWGQGTTLTVSS VL: DVVMTQTPLSLFVSLGDQASISCRSSQSLLYSNGNTYLHWYLQRPGQSPQLLIYKVSNRFSGVPDRFSGSGSGTDFTLKISRVEAEDLGVYFCSQTTHVPWTFGGGTKLEIK |  |  | 0.6 |  |  | 184 |  |  |  |  |  |  |  |  |  | 1.4 |  | 
R29-8-75B (antibody, V domains shown, Murine monoclonal antibody from a hybridoma) VH: DVQLVESGGGLVQPGGSRKLSCAASGFTFSRFGMHWVRQAPEKGLEWVAYISSGSSTIYYADTVKGRFTISRDNPKNTLFLQMTSLRSEDTAMYYCARVDYDVALAYWGQGTLVTVSA VL: GVLMTQTPLSLPVSLGDQASISCRSSQSIVHRNGNTYLEWYLQKPGQSPKLLIYKVSNRFSGVPDRFSGSGSGTDFTLKISRVEAEDLGVYYCFQGSQWTFGGGTKLEIK |  |  | 6.5 |  |  | 148 | 7.8 |  |  | binds | binds |  |  |  |  |  | binds | 0.09

— patent US20150231240A1, “ANTI-C16ORF54 ANTIBODIES AND METHODS OF USE THEREOF” (priority 2012, published 2015)
